Source: patent publication US20250341526A1, “NOVEL DYES” (Quantum-Si Incorporated, priority 2024, published 2025)

B1: PS626: amino acid recognition protein, SEQ ID NO: 186 (protein, listed as Zygosaccharomyces parabailii)
chain: MYHVYKHSGRNCGRKFKVGEPIYRCHECGYDETCVLCIHCFNPKDHDSHHVYIDICSEFSTGICDCGDTEAFVNPLHCKAEED
B2: PS628: amino acid recognition protein, SEQ ID NO: 188 (protein)
chain: MSHRAYHKNSPCGRIFRKGEPIHRCLTCGFDDTCALCSHCFQPEYHEGHKVHIGICQRENGGVCDCGDPEAWTQELFCPYAVD
modifications: Candida albicans
B3: PS623: amino acid recognition protein, SEQ ID NO: 183 (protein, listed as Kazachstania naganishii)
chain: MSKQFRHKGRNCGRKFRLGEPLYRCQECGYDDTCVLCINCFNPKDHEGHHIYTDICNDFTSGICDCGDEEAWLSPLHCKAEED
B4: PS629: amino acid recognition protein, SEQ ID NO: 189 (protein, listed as Pichia pastoris)
chain: MCPNYKHHGRPCARQFKQGEPIYRCYECGFDETCVMCMHCFNREQHRDHEVSISIASSSNDGICDCGDPQAWNIELHCQSELD
B5: PS624: amino acid recognition protein, SEQ ID NO: 184 (protein, listed as Eremothecium sinecaudum)
chain: MPKNHNHKGRNCGRSFQPGEPLYRCQECAYDDTCVLCIRCFNPLDHVNHHVSTHICSEFNDGICDCGDVEAWNVELNCKAEED
B6: Escherichia coli leucyl/phenylalanyl-tRNA-protein transferase: amino acid recognition protein, SEQ ID NO: 111 (protein, listed as Escherichia coli)
chain: MRLVQLSRHSIAFPSPEGALREPNGLLALGGDLSPARLLMAYQRGIFPWFSPGDPILWWSPDPRAVLWPESLHISRSMKRFHKRSPYRVTMNYAFGQVIEGCASDREEGTWITRGVVEAYHRLHELGHAHSIEVWREDELVGGMYGVAQGTLFCGESMFSRMENASKTALLVFCEEFIGHGGKLIDCQVLNDHTASLGACEIPRRDYLNYLNQMRLGRLPNNFWVPRCLFSPQELE
B7: PS625: amino acid recognition protein, SEQ ID NO: 185 (protein, listed as Saccharomyces eubayanus)
chain: MGDVHKHTGRNCGRKFKIGEPLYRCHECGCDDTCVLCIHCFNPKDHINHHVCTDICSEFTSGICDCGDEEAWNSSLHCKAEEQ
B8: PS622: amino acid recognition protein, SEQ ID NO: 182 (protein, listed as Kluyveromyces dobzhanskii)
chain: MHSRFNHAGRICASKFKVGEPIYRCKECSFDDTCVICVNCFNPKDHVGHHVYTSICSEFNNGICDCGDTEAWNHDMHCKADEN
B9: PS627: amino acid recognition protein, SEQ ID NO: 187 (protein, listed as Zygosaccharomyces mellis)
chain: MPKYHQHSGRYCGRKFKVGEPIYRCHECGFDETCVICIHCFNAKDHETHHVSVSICSEYSTGICDCGDTEAFVNPLHCRAEEV

System: not listed separately
Assay: Persistence of triplet state quenchers in solution
Type: physicochemical
Details: also in the presence of mineral oil
From the text: FIGS. 11A-11B show the persistence of cyclooctatetraene (FIG. 11A) and COT-PEG3-sulfonate (triethylammonium salt) (FIG. 11B) in solution.
Cyclooctatetraene (COT)-based triplet state quenchers (TSQs) were used in place of or in addition to the currently used Trolox TSQ. TSQs can enhance photophysical properties of dyes in single-molecule studies, and the optimal TSQ can depend on the class of dye used. Trolox and COT quench triplet states by different mechanisms.
Water-soluble COT conjugates were made to improve solution stability of these TSQs (FIG. 11). The derivatives were made via various amide coupling reactions between COT-CO2H and the appropriate amine. COT-CO2H can be purchased or made in two steps from the parent COT compound.
For `C1=CC=CC=CC=C1` [unsubstituted COT, cyclooctatetraene], the “stability (persistence) in solution” value was “its concentration drops over time”.

Same assay, conditions: sequencing buffer
In the case of `C1=CC=CC=CC=C1` [unsubstituted COT, cyclooctatetraene], the water solubility is reported as “not fully water-soluble”.

System: amino acid at a terminal position of a polypeptide
Assay: not given
Details: Table 2; amino acid at terminal position (phosphotyrosine also internal); inferred from literature and/or demonstrated by the inventors; cited from earlier work
For B1, the “Binding Pref.” value is listed as “K, R, H”. In the case of B2, the “Binding Pref.” value is given as “K, R, H”. In the case of B3, the “Binding Pref.” value is listed as “K, R, H”. In the case of B4, the “Binding Pref.” value is given as “K, R, H”. For B5, the “Binding Pref.” value is given as “K, R, H”. For B6, the “Binding Pref.” value is given as “K, R”. For B7, the “Binding Pref.” value is listed as “K, R, H”. For B8, the “Binding Pref.” value is listed as “K, R, H”. In the case of B9, the “Binding Pref.” value is listed as “K, R, H”.
